Measured values reported in patent publication US20250188151A1, “C-JUN ANTAGONIST PEPTIDES” (The University of Bath, priority 2022, published 2025).

Target: T1, cJun bZIP/TRE DNA interaction (transcriptional block of TRE-mDHFR) (Homo sapiens, UniProt P05412, S292Y)
T1 construct: expressed in transfected cells; host or cells: E. coli BL21 Gold carrying pES300d-TRE-mDHFR and pES230d-cJun bZIP
Assay: Transcription Block Survival (TBS) assay: colony counting and growth competition in E. coli
Format: cell-based
Excerpt: Library Construction and TBS Assay: Library inserts were produced using PCR fill-in reactions from synthesised primers (Sigma) with degenerate codons at the desired positions to produce the correct residue options. The library was subcloned using SacI and AscI sites into the pET24a plasmid containing A-FosW. The primers used were cJun-Hinge-Lib-F: 5′-[…] TATGCC-3′ (SEQ ID NO: 49) and cJun-Hinge-Lib_R: 5′-[…] GTTC-3′ (SEQ ID NO: 50). The library DNA was transformed into NEB 10-beta electrocompetent E. coli cells. The following equation was utilised to determine library coverage by the number of single colonies: E=100×(1−1/n)^m where E is the percentage of the library missing, m is the number of colonies collected and n is the library size. […] Library DNA quality was assessed by sequencing both the DNA pool and a number of single colonies to show degenerate codons in the correct positions in the pool and to show a diversity of library members from single colonies. The pool of library DNA was transformed into BL21 Gold cells already containing pES300d-TRE-mDHFR and pES230d-cJun bZIP.
Selective pressure is applied by growing the bacteria in M9 minimal media with TMP (2-4 μM) alongside ampicillin, kanamycin and chloramphenicol to maintain the required plasmids, and IPTG (1 mM) to induce protein expression. The library transformants were first plated out onto selective agar plates (2 μM TMP) and grown at 37° C. for 72-96 h. Optimisation experiments (FIG. 5) indicate that 4 μM TMP is optimum for selection however a lower stringency is used initially before selection is increased in later steps. Colonies from this first round of selection were pooled and serially grown in liquid culture at starting OD600 of 0.05 and grown at 37° C. with shaking at 200 rpm until the OD600 reached 0.6. TMP concentration was 2 μM in the first liquid culture passage before it was increased to the optimum 4 μM in subsequent passages. […] At each passage step, a sample of the culture was plated on LB agar (supplemented with antibiotics to maintain plasmids) to select and sequence individual colonies, and a DNA pool was also sequenced. This allows the occurrence of library members to be monitored as winner sequences are selected for. Assay Validation experiments utilised a modified assay methodology whereby overnight cultures from glycerol stocks of the Control Strains (Table 2) were diluted to OD600=0.5 and 50 μL was plated on a selective M9 minimal medium agar plate.
Transcription block survival (TBS) is an intracellular assay that utilises cell survival as a readout. […] This enzyme is absolutely essential for survival since it is required for the production of purines needed for DNA and amino acid synthesis. […]. We produced a mDHFR gene (FIGS. 2 and 3) by rational design to introduce 15 TRE sites into the coding DNA sequence to allow a robust cJun transcriptional block whilst minimising alteration to the expressed protein (TRE-mDHFR). In particular, the resulting TRE-mDHFR construct was produced via two silent and thirteen conservative mutations. […] The accessible surface areas of all other amino acid residues were calculated using the ‘Accessible Surface Area and Accessibility Calculation for Protein’ tool (http://cib.cf.ocha.ac.jp/bitool/ASA/). […]

T1 sequence (P05412 with tags, fused parts or gaps S292Y): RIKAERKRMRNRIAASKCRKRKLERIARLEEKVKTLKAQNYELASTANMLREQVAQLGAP

B1: HingeW (peptide)
peptide: MASLEQRAEELARENEELEKEAEELVVEEDVLEEEIEQLEERNYALRKEIEDLQKQLEKLGAPHHHHHH
notes: Recombinant, capped (MAS at the N-terminus, GAP at the C-terminus) and C-terminally 6xHis-tagged, 69 amino acids; also called peptide 1
- direct competition in liquid culture, sequence observed by DNA sequencing (equal numbers of TBS cells with A-FosW or HingeW, after three passages): only HingeW was observed
- effect on TRE-mDHFR transcriptional block / colony numbers (vs transcriptionally blocked cells (TRE-mDHFR + cJun bZIP)): restore cell survival
